Results taken from paper PMC4773095.

Target: NsrR, response regulator from Streptococcus agalactiae COH1 (full length) (Streptococcus agalactiae COH1)
Experiment: SEC; Superdex 200 GL 10/300, buffer C (25 mM Tris pH 9.0, 50 mM NaCl, 2 mM PMSF); column calibrated with proteins of known molecular weight

Substance “NsrR, response regulator from Streptococcus agalactiae COH1 (full length) (natural protein)” has a stoichiometry N of 2.
